Where no end group is shown, it is not given here.
Key:
HMGB1 peptide 166-183 = molecular target: T1, HMGB1 peptide 166-183 (UniProt P09429 166-183, also: biotinylated, site not given here); assay: ELISA, biotinylated peptide on NeutrAvidin plate, antibody serially diluted from 10 ug/ml, anti-human IgG-HRP, OD 450
T1 peptide (looked up): GKPDAAKKGVVKAEKSKK
Method: (§1) The plate was then blocked with 4% milk powder dissolved in PBS at 37° C. for 1 hour. The blocking solution was removed and replaced with human anti-HMG1 antibodies at various concentrations (see FIGS. 5A-B). […] HRP activity was detected with Sureblue HRP substrate (KPL). Plates were read at 450 nm using a Kinetic Microplate Reader (Molecular Devices). […] After washing and blocking with 1% BSA in PBS, the biotinylated peptides were individually added into the avidin coated wells and incubated for 30 min at room temperature. The serial diluted antibody G4, S16 and S6 at the initial concentration at 10 μg/ml were then transferred into the wells followed by adding mouse anti human IgG-HRP conjugate (Pierce). Detection was accomplished by adding 50 μl of tetramethylbenzidine (TMB) substrate (KPL) and the absorbance was read at 450 nm.

HMGB1 peptide 179-186 = molecular target: T2, HMGB1 peptide 179-186 (UniProt P09429 179-186, also: biotinylated, site not given here); assay: as above
T2 peptide (looked up): EKSKKKKE
Method: as §1

[1] = molecular target: T3, released HMG1 from conditioned medium of necrotic 293H cells (human, UniProt P09429 1-215); assay: sandwich ELISA: antibody titrated and captured on anti-human IgG Fc, released HMG1 in solution, mouse anti-HMGB1 detection, OD 450
T3 construct: also called necrotic HMG1
T3 sequence (looked up): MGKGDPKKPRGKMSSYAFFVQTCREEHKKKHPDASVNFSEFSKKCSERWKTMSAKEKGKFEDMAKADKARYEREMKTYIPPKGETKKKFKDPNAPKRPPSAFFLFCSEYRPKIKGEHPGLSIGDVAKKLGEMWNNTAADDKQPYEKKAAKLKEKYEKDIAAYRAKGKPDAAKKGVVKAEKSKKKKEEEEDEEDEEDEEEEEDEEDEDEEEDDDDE
Method: Sandwich ELISA (soluble HMG1): Immunoplates (EIA/RIA plate, High binding, Costar) were coated with anti human IgG Fc at 10 μg/ml in PBS (pH 7.2) and incubated at 4° C. overnight. The coating reagent was removed and the plates were rinsed briefly with PBS. The plates were then blocked with 4% milk for 1 hour at 37° C. and rinsed with PBS. The anti-HMG1 antibodies were diluted in 4% milk. For serial dilutions, the antibodies were used at a starting concentration of 20 μg/ml. The diluted anti-HMG1 antibodies were then added into plate and incubated for 1 hr at 37° C. The plate was then washed 10 times with PBST (PBS/0.1% tween 20) and incubate with antigen (HMGB1, 2 μg/ml; or 0.7 μg/ml for native HMGB1) in 4% milk and incubated at 37° C. for 1 h. The plate was then wash 10 times and incubated with mouse anti-HMGB1, 1 μg/ml in 4% milk at 37° C. for 1 h. The plate was washed 10 times and incubated with anti-mouse IgG-HRP at 1:1000 at 37° C. for 1 h. The plate was then washed and developed. HRP activity was detected with Sureblue HRP substrate (KPL). Plates were read at 450 nm using a Kinetic Microplate Reader (Molecular Devices).

HMGB1 peptide 106-123 = molecular target: T4, HMGB1 peptide 106-123 (also: biotinylated, site and spacer not given here); assay: ELISA, biotinylated peptide on NeutrAvidin plate, antibody serially diluted from 10 ug/ml, anti-human IgG-HRP, OD 450
T4 peptide: CSEYRPKIKGEHPGLSIG
Method: as §1

[2] = molecular target: T5, nuclear HMGB1 in fixed HUVEC cells (UniProt P09429 1-215, limits assumed); assay: immunofluorescence on fixed HUVEC, anti-human IgG-FITC; paragraph 81 gives the lower panels as G4
T5 construct: whole, on cells; immunostaining
T5 sequence (looked up): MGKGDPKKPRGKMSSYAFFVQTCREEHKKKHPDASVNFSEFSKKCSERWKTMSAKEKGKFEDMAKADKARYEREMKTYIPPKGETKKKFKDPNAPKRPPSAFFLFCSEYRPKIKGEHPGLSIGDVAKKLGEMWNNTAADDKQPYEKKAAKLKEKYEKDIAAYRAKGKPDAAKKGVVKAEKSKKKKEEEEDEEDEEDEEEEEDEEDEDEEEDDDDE
Method: Immunofluorescence: Intracytoplasmic (ic) HMGB1 was quantitated by direct immunofluorescence. HUVEC were harvested by trypsin-EDTA treatment and seeded on a glass coverslip. Once the cells are settled, they were stimulated with 0.2 μg/ml of LPS (Sigma) for 4 hours. The cells were fixed in 2% paraformaldehyde for 15 min and then permeabilized in 0.2% Triton X-100 for 2 min. Fixed and permeabilized cells were incubated with anti-HMGB1 antibodies at 1 μg/ml for 1 hour at room temperature. Cells were then washed to remove excess or nonspecifically bound primary antibody followed by incubation with anti human IgG conjugated with fluorescence (Pierce). The sections were mounted with fluoromount (Southern Associates, Birmingham, Ala.), and the images were processed with a Nikon microscope (Japan) and a SPOT imaging system (Diagnostic Instrument).

B1: human anti-HMG1 antibody S16 (antibody, IgG1, V domains shown)
VH: EVQLLESGGGLVQPGGSLRLSCAASGFTFSWYSMLWVRQAPGKGLEWVSYISPSGGFTNYADSVKGRFTISRDNSKNTLYLQMNSLRAEDTAVYYCARWDYNSGWYYDHWGQGTLVTVSS
VL: DIQMTQSPDTLSLSPGERATLSCRASQSVNSRNLAWYQQKPGQAPRLLIYGASTRATGIPDRFSGSVSGTEFTLTISSLQPDDFATYYCQQYNSYFTFGQGTKLEIK
notes: full length IgG1 made from a human Fab phage clone; also called ATCC PTA-6259
Q: Does B1 bind (HMGB1 peptide 166-183)?
A: binds

Q: Does B1 bind (HMGB1 peptide 179-186)?
A: binds

B2: human anti-HMG1 antibody G4 (antibody, IgG1, V domains shown)
VH: EVQLLESGGGLVQPGGSLRLSCAASGFTFSWYDMTWVRQAPGKGLEWVSSISPSGGYTKYADSVKGRFTISRDNSKNTLYLQMNSLRAEDTAVYYCTTEFYDYLDVWGKGTTVTVSS
VL: DIQMTQSPGTLSLSPGEGATLSCRASQSVSSTYLAWYQQKPGQAPRLLIYEASKRATGTPARFSGSGSGTDFTLSISSLEPEDFAVYYCQHRHNWPPQWTFGQGTKVEVK
notes: full length IgG1 made from a human Fab phage clone; also called ATCC PTA-6258
Q: Does B2 bind [1]?
A: binds

Q: Does B2 bind (HMGB1 peptide 106-123)?
A: binds

Q: Does B2 bind [2]?
A: binds
